# Laboratory results published in the Immune Epitope Database (IEDB).
# Columns and labels:
# [1] = target: HLA-A*02:01; experiment: IEDB peptide-MHC binding, purified MHC/competitive/fluorescence; ≥ and ≤ were set here for values at or beyond the usual limits of such assays
# [2] = target: HLA-A*24:02; experiment: as above
# [3] = target: HLA-A*30:02; experiment: IEDB peptide-MHC binding, purified MHC/competitive/radioactivity; filed as Kd, often an IC50 or EC50 that approximates it; ≥ and ≤ were set here for values at or beyond the usual limits of such assays
# [4] = target: HLA-B*15:01; experiment: as above
# [5] = target: HLA-B*58:01; experiment: as above
# [6] = target: HLA-B*53:01; experiment: as above
# [7] = target: HLA-B*57:01; experiment: as above
# [8] = target: HLA-A*32:01; experiment: as above
# [9] = target: HLA-A*11:01; experiment: as above
# [10] = target: HLA-B*57:01; experiment: IEDB peptide-MHC binding, purified MHC/direct/fluorescence; filed as Kd, often an IC50 or EC50 that approximates it; ≥ and ≤ were set here for values at or beyond the usual limits of such assays
# [11] = target: HLA-B*15:17; experiment: as above
# [12] = target: HLA-B*58:01; experiment: as above
# [13] = target: HLA-B*27:05; experiment: as above
# [14] = target: HLA-B*48:01; experiment: as above
# [15] = target: HLA-A*23:01; experiment: IEDB peptide-MHC binding, purified MHC/competitive/radioactivity; filed as Kd, often an IC50 or EC50 that approximates it; ≥ and ≤ were set here for values at or beyond the usual limits of such assays; settings: source organism: Dengue virus 1 Brazil/97-11/1997
# [16] = target: HLA-A*24:02; experiment: as above; settings: source organism: Dengue virus 1 Brazil/97-11/1997
# [17] = target: HLA-A*01:01; experiment: as above
# [18] = target: HLA-B*35:01; experiment: as above
# [19] = target: HLA-B*54:01; experiment: as above; settings: source organism: Hepacivirus hominis
# [20] = target: HLA-A*02:03; experiment: as above; settings: source organism: Hepacivirus hominis
# [21] = target: HLA-A*02:02; experiment: as above; settings: source organism: Hepacivirus hominis
# [22] = target: HLA-B*51:01; experiment: as above; settings: source organism: Hepacivirus hominis
# [23] = target: HLA-B*08:01; experiment: as above; settings: source organism: Hepacivirus hominis
# [24] = target: HLA-A*02:06; experiment: as above; settings: source organism: Hepacivirus hominis
# [25] = target: HLA-A*03:01; experiment: as above; settings: source organism: Hepacivirus hominis
# [26] = target: HLA-A*02:01; experiment: as above; settings: source organism: Hepacivirus hominis
# [27] = target: HLA-B*07:02; experiment: as above
# [28] = target: HLA-A*68:02; experiment: as above
# [29] = target: HLA-A*68:01; experiment: as above; settings: source organism: Hepacivirus hominis
# [30] = target: HLA-A*33:01; experiment: as above; settings: source organism: Hepacivirus hominis
# [31] = target: HLA-A*31:01; experiment: as above; settings: source organism: Hepacivirus hominis
# [32] = source organism: Sudan ebolavirus
# [33] = source organism: Zaire ebolavirus
# [34] = source organism: Dengue virus 1 Brazil/97-11/1997
# [35] = source organism: Dengue virus 4 Dominica/814669/1981
# [36] = source organism: Vaccinia virus WR
# [37] = source organism: Dengue virus 2 Jamaica/1409/1983
# [38] = source organism: Dengue virus 4 Philippines/H241/1956
# [39] = source organism: Dengue virus 3 Martinique/1243/1999
# [40] = source organism: Entamoeba histolytica HM-1:IMSS
# [41] = source organism: Lassa virus Josiah
# [42] = source organism: Mammarenavirus lassaense
# [43] = source organism: Burkholderia mallei
# [44] = source organism: Hepacivirus hominis
# [45] = source organism: Marburg virus - Musoke, Kenya, 1980
# [46] = source organism: Vibrio parahaemolyticus
sequence,measurement,setting,value
AFSMPLGVV,IC50,[1]; [32],8990 nM
same,IC50,[2]; [32],2820 nM
ANAGQFLSF,IC50,[2]; [33],578 nM
AVLMLVAHY,Kd,[3]; [34],2.19 nM
same,Kd,[4]; [34],51.2 nM
FDAVLYYHM,IC50,[1]; [33],≥ 309000 nM
same,IC50,[2]; [33],12000 nM
FGSVGGLFTS,Kd,[5]; [35],220 nM
FIIKSSYVF,Kd,[4]; [36],3.23 nM
FITDNVHTW,Kd,[6]; [37],88.7 nM
same,Kd,[5]; [37],17.5 nM
FVVDNVHTW,Kd,[6]; [35],8.45 nM
same,Kd,[5]; [35],106 nM
GAAFSGVSW,Kd,[7]; [37],22.8 nM
same,Kd,[5]; [37],126 nM
GSSKIRWIVE,Kd,[7]; [38],868 nM
same,Kd,[8]; [38],2260 nM
GSSPIIEVKQ,Kd,[7]; [38],17000 nM
GTSADLTVEK,Kd,[7]; [39],3510 nM
same,Kd,[9]; [39],219 nM
IQAFEAGVD,IC50,[1]; [33],≥ 210000 nM
same,IC50,[2]; [33],32900 nM
ISSTPFAEYT,Kd,[5]; [38],2050 nM
ISTLPTEQF,Kd,[10]; [40],238 nM
same,Kd,[11]; [40],6.5 nM
same,Kd,[12]; [40],2.2 nM
IWMAPSLTE,IC50,[2]; [33],256 nM
KAIKILTGF,Kd,[7]; [38],66.7 nM
same,Kd,[5]; [38],22.4 nM
KATREAQKRA,Kd,[7]; [37],847 nM
same,Kd,[5]; [37],10700 nM
KFRKSSFFV,IC50,[1]; [32],7760 nM
same,IC50,[2]; [32],449 nM
KLHSGKDVF,Kd,[4]; [34],4.82 nM
KLRQIVAYF,Kd,[4]; [36],7.59 nM
KQAKAPESK,Kd,[13]; [41],704 nM
same,Kd,[14]; [41],≥ 20000 nM
KRASPILRF,Kd,[13]; [42],87 nM
same,Kd,[14]; [42],≥ 20000 nM
LGFMNEDHW,Kd,[7]; [34],26.2 nM
LGKAVHQVF,Kd,[4]; [38],477 nM
LMLLPTALAF,Kd,[6]; [34],15600 nM
same,Kd,[15],72.9 nM
same,Kd,[4]; [34],0.82 nM
same,Kd,[16],4450 nM
LSIPPTAGI,Kd,[5]; [38],24.1 nM
LSRNSTHEMY,Kd,[3]; [39],32.2 nM
same,Kd,[4]; [39],48.2 nM
same,Kd,[17]; [39],291 nM
LTSTWVMYGT,Kd,[7]; [35],2540 nM
same,Kd,[5]; [35],663 nM
MAILGDTAW,Kd,[6]; [37],9.79 nM
same,Kd,[7]; [37],22.6 nM
same,Kd,[18]; [37],33.1 nM
same,Kd,[5]; [37],3.34 nM
MIKNLTQLF,Kd,[4]; source organism: Vaccinia virus Copenhagen,5.71 nM
MLAVWNRVW,Kd,[7]; [37],20.6 nM
same,Kd,[5]; [37],113 nM
MTTTANWLW,Kd,[6]; [38],2.5 nM
same,Kd,[7]; [38],1.62 nM
same,Kd,[5]; [38],1.05 nM
NIREIEEHM,Kd,[4]; [36],234 nM
PATLFVWYFW,Kd,[7]; [34],169 nM
same,Kd,[5]; [34],9290 nM
same,Kd,[8]; [34],15500 nM
PVVLTGGTG,IC50,[1]; source organism: Variola virus,≥ 167000 nM
same,IC50,[2]; source organism: Variola virus,69800 nM
QSSSMRKTDW,Kd,[7]; [39],151 nM
same,Kd,[5]; [39],75.8 nM
RAMDTYHRW,Kd,[10]; [43],48.8 nM
same,Kd,[11]; [43],2.1 nM
same,Kd,[12]; [43],10.5 nM
RNWAHSSL,Kd,[6]; [44],≥ 49500 nM
same,Kd,[19],≥ 87700 nM
same,Kd,[20],≥ 87700 nM
same,Kd,[21],≥ 70000 nM
same,Kd,[22],≥ 51200 nM
same,Kd,[17]; [44],2200 nM
same,Kd,[23],≥ 67500 nM
same,Kd,[24],≥ 58300 nM
same,Kd,[25],≥ 87300 nM
same,Kd,[18]; [44],≥ 87800 nM
same,Kd,[26],≥ 69400 nM
same,Kd,[27]; [44],≥ 57400 nM
same,Kd,[28]; [44],≥ 69800 nM
same,Kd,[29],≥ 87900 nM
same,Kd,[30],≥ 87600 nM
same,Kd,[9]; [44],≥ 87000 nM
same,Kd,[31],17800 nM
RSLIGNEEF,Kd,[5]; [39],15.4 nM
same,Kd,[8]; [39],4650 nM
RTSWALCEAL,Kd,[7]; [39],1710 nM
RVIGYILFF,Kd,[11]; [45],129 nM
same,Kd,[12]; [45],2040 nM
RVIQLSRKTF,Kd,[15],3290 nM
same,Kd,[4]; [34],45.2 nM
RVMVMVGATM,Kd,[4]; [37],2.14 nM
same,Kd,[27]; [37],61.5 nM
SASSMVNGVV,Kd,[7]; [37],227 nM
same,Kd,[5]; [37],2040 nM
same,Kd,[28]; [37],10.2 nM
SINNIDPHF,Kd,[4]; [36],12 nM
TLAAMPEEE,IC50,[2]; [33],10000 nM
TQVGTLALSL,Kd,[4]; [38],57.2 nM
VGVNTQETI,IC50,[2]; [32],7560 nM
VSSVNTTSKM,Kd,[7]; [38],12100 nM
same,Kd,[5]; [38],1450 nM
YGVKNLFDW,Kd,[10]; [45],38.3 nM
same,Kd,[11]; [45],155 nM
same,Kd,[12]; [45],≥ 5000 nM
YSLGQGPVW,Kd,[11]; [46],≤ 1 nM
same,Kd,[12]; [46],2.6 nM
